Results taken from patent US20130344089A1.

Experiments:
[1] = target: Aβ42 A21C/A30C (Aβ42-CC) monomers (UniProt P05067); experiment: direct ELISA, Aβ42-CC monomers coated at pH 7.4
[2] = target: Aβ42 A21C/A30C (Aβ42-CC) monomers (UniProt P05067); experiment: direct ELISA, Aβ42-CC monomers coated at pH 10.4
[3] = target: Aβ42 A21C/A30C (Aβ42-CC) monomers (UniProt P05067); experiment: direct ELISA, Aβ42-CC monomers coated at pH 10.4 with 10 mM TCEP (reduced form)

total Ig titer (log10) [1]: 2.1 log10 titer | total Ig titer (log10) [2]: 2 log10 titer | total Ig titer (log10) [3]: 2.1 log10 titer
Substance: monoclonal antibody 6E10 (Covance Research Products)
